In the Immune Epitope Database (IEDB):

Key:
HLA-A*24:02 = assay: IEDB peptide-MHC binding, purified MHC/direct/fluorescence; filed as Kd, often an IC50 or EC50 that approximates it; ≥ and ≤ were set here for values at or beyond the usual limits of such assays
HLA-A*69:01 = assay: as above
HLA-B*40:01 = assay: as above
HLA-B*27:05 [1] = assay: as above
HLA-A*01:01 [2] = assay: as above
HLA-B*15:01 [3] = assay: as above
HLA-B*07:02 = assay: as above
HLA-A*11:01 [4] = assay: as above
HLA-A*02:01 = assay: as above
HLA-B*58:01 = assay: as above
HLA-B*44:02 = assay: as above
HLA-A*03:01 = assay: as above
HLA-B*27:05 [5] = assay: IEDB peptide-MHC binding, purified MHC/competitive/fluorescence; filed as Kd, often an IC50 or EC50 that approximates it; ≥ and ≤ were set here for values at or beyond the usual limits of such assays; settings: source organism: Vibrio vulnificus YJ016
HLA-B*46:01 = assay: IEDB peptide-MHC binding, purified MHC/direct/fluorescence; filed as Kd, often an IC50 or EC50 that approximates it; ≥ and ≤ were set here for values at or beyond the usual limits of such assays
HLA-B*51:01 = assay: as above; settings: source organism: Mycobacterium tuberculosis
HLA-B*57:01 [6] = assay: as above; settings: source organism: Mycobacterium tuberculosis
HLA-B*15:17 [7] = assay: as above; settings: source organism: Mycobacterium tuberculosis
HLA-B*38:01 = assay: as above; settings: source organism: Mycobacterium tuberculosis str. Haarlem
HLA-A*02:06 [8] = assay: as above
HLA-A*30:01 [9] = assay: as above; settings: source organism: Mycobacterium tuberculosis str. Haarlem
HLA-B*18:01 [10] = assay: as above
HLA-B*08:02 = assay: as above
HLA-A*31:01 = assay: as above
HLA-B*48:01 = assay: as above; settings: source organism: Mycobacterium tuberculosis
HLA-B*39:01 = assay: as above; settings: source organism: Mycobacterium tuberculosis str. Haarlem
HLA-B*57:01 [11] = assay: IEDB peptide-MHC binding, purified MHC/competitive/fluorescence; filed as Kd, often an IC50 or EC50 that approximates it; ≥ and ≤ were set here for values at or beyond the usual limits of such assays; settings: source organism: Human immunodeficiency virus 1
HLA-B*15:17 [12] = assay: as above; settings: source organism: Human immunodeficiency virus 1
HLA-A*02:03 [13] = assay: as above; settings: source organism: Human immunodeficiency virus 1
HLA-A*26:02 = assay: as above; settings: source organism: Human immunodeficiency virus 1
HLA-A*01:01 [14] = assay: as above; settings: source organism: Human immunodeficiency virus 1
HLA-A*02:06 [15] = assay: as above; settings: source organism: Human immunodeficiency virus 1
HLA-A*30:01 [16] = assay: as above; settings: source organism: Human immunodeficiency virus 1
HLA-B*15:01 [17] = assay: as above; settings: source organism: Human immunodeficiency virus 1
HLA-A*11:01 [18] = assay: as above; settings: source organism: Human immunodeficiency virus 1
HLA-B*18:01 [19] = assay: as above; settings: source organism: Human immunodeficiency virus 1
HLA-B*08:01 = assay: IEDB peptide-MHC binding, purified MHC/direct/fluorescence; filed as Kd, often an IC50 or EC50 that approximates it; ≥ and ≤ were set here for values at or beyond the usual limits of such assays
HLA-B*15:09 = assay: as above; settings: source organism: Vibrio cholerae V52
HLA-A*02:19 = assay: as above; settings: source organism: Influenza A virus(A/swine/Shandong/fNY/2003(H9N2))
HLA-A*02:03 [20] = assay: as above; settings: source organism: Influenza A virus(A/swine/Shandong/fNY/2003(H9N2))
HLA-A*02:11 = assay: as above; settings: source organism: Influenza A virus(A/swine/Shandong/fNY/2003(H9N2))
HLA-A*02:12 = assay: as above; settings: source organism: Influenza A virus(A/swine/Shandong/fNY/2003(H9N2))
HLA-A*02:16 = assay: as above; settings: source organism: Influenza A virus(A/swine/Shandong/fNY/2003(H9N2))
[21] = source organism: Vibrio parahaemolyticus
[22] = source organism: Mycobacterium tuberculosis
[23] = source organism: Mycobacterium tuberculosis str. Haarlem
[24] = source organism: Vibrio cholerae
[25] = source organism: Vibrio cholerae V52
[26] = source organism: Influenza A virus (A/Viet Nam/HN/2004(H5N1))
[27] = source organism: Influenza A virus (A/Puerto Rico/8/34/Mount Sinai(H1N1))

## ISDPAFKVF
HLA-A*24:02; [21]
  Kd: ≥ 20 µM
HLA-A*69:01; [21]
  Kd: ≥ 20 µM
HLA-B*40:01; [21]
  Kd: ≥ 20 µM
HLA-B*27:05 [1]; [21]
  Kd: ≥ 20 µM
HLA-A*01:01 [2]; [21]
  Kd: ≥ 20 µM
HLA-B*15:01 [3]; [21]
  Kd: 0.63 µM
HLA-B*07:02; [21]
  Kd: ≥ 20 µM
HLA-A*11:01 [4]; [21]
  Kd: ≥ 20 µM
HLA-A*02:01; [21]
  Kd: ≥ 20 µM
HLA-B*58:01; [21]
  Kd: 0.0175 µM
HLA-B*44:02; [21]
  Kd: ≥ 20 µM
HLA-A*03:01; [21]
  Kd: ≥ 20 µM

## QQYTDEAPY
HLA-B*27:05 [5]
  Kd: ≥ 20 µM

## RGRIGRTYL
HLA-B*46:01; [22]
  Kd: ≥ 20 µM
HLA-B*51:01
  Kd: ≥ 20 µM
HLA-B*57:01 [6]
  Kd: ≥ 20 µM
HLA-B*15:17 [7]
  Kd: 0.0687 µM
HLA-A*69:01; [22]
  Kd: ≥ 20 µM
HLA-B*40:01; [22]
  Kd: ≥ 20 µM
HLA-B*38:01
  Kd: ≥ 20 µM
HLA-A*01:01 [2]; [22]
  Kd: ≥ 20 µM
HLA-A*02:06 [8]; [23]
  Kd: ≥ 20 µM
HLA-A*30:01 [9]
  Kd: 0.023 µM
HLA-B*15:01 [3]; [22]
  Kd: ≥ 20 µM
HLA-B*07:02; [22]
  Kd: 0.003 µM
HLA-A*11:01 [4]; [22]
  Kd: ≥ 20 µM
HLA-B*18:01 [10]; [22]
  Kd: ≥ 20 µM
HLA-A*02:01; [22]
  Kd: ≥ 20 µM
HLA-B*08:02; [23]
  Kd: ≥ 20 µM
HLA-A*31:01; [22]
  Kd: ≥ 20 µM
HLA-B*58:01; [22]
  Kd: ≥ 20 µM
HLA-B*48:01
  Kd: 3.04 µM
HLA-B*39:01
  Kd: ≥ 20 µM
HLA-A*03:01; [22]
  Kd: ≥ 20 µM

## RSLFNTIATLY
HLA-B*57:01 [11]
  Kd: 0.146 µM
HLA-B*15:17 [12]
  Kd: 0.003 µM
HLA-A*02:03 [13]
  Kd: 0.728 µM
HLA-A*26:02
  Kd: 2.15 µM
HLA-A*01:01 [14]
  Kd: 1.25 µM
HLA-A*02:06 [15]
  Kd: 0.203 µM
HLA-A*30:01 [16]
  Kd: ≥ 20 µM
HLA-B*15:01 [17]
  Kd: 0.711 µM
HLA-A*11:01 [18]
  Kd: 0.255 µM
HLA-B*18:01 [19]
  Kd: 0.0886 µM

## RVHGATVFK
HLA-A*24:02; [24]
  Kd: ≥ 20 µM
HLA-A*69:01; [24]
  Kd: ≥ 20 µM
HLA-B*40:01; [24]
  Kd: ≥ 20 µM
HLA-B*27:05 [1]; [24]
  Kd: ≥ 20 µM
HLA-A*01:01 [2]; [24]
  Kd: ≥ 20 µM
HLA-B*08:01; [25]
  Kd: ≥ 20 µM
HLA-B*15:09
  Kd: ≥ 20 µM
HLA-B*15:01 [3]; [24]
  Kd: ≥ 20 µM
HLA-B*07:02; [24]
  Kd: ≥ 20 µM
HLA-A*11:01 [4]; [24]
  Kd: 0.0472 µM
HLA-B*18:01 [10]; [24]
  Kd: ≥ 20 µM
HLA-A*02:01; [24]
  Kd: ≥ 20 µM
HLA-B*08:02; [25]
  Kd: ≥ 20 µM
HLA-A*31:01; [24]
  Kd: 0.0595 µM
HLA-B*58:01; [24]
  Kd: ≥ 20 µM
HLA-B*44:02; [24]
  Kd: ≥ 20 µM
HLA-A*03:01; [24]
  Kd: 0.249 µM

## VSPLAVTWW
HLA-A*02:19
  Kd: ≥ 20 µM
HLA-B*46:01; [26]
  Kd: ≥ 20 µM
HLA-A*24:02; [26]
  Kd: ≥ 20 µM
HLA-A*69:01; [26]
  Kd: ≥ 20 µM
HLA-A*02:03 [20]
  Kd: 0.029 µM
HLA-B*40:01; [26]
  Kd: ≥ 20 µM
HLA-B*27:05 [1]; [27]
  Kd: 0.161 µM
HLA-A*02:11
  Kd: 0.032 µM
HLA-A*01:01 [2]; [26]
  Kd: ≥ 20 µM
HLA-A*02:06 [8]; source organism: Influenza A virus(A/swine/Shandong/fNY/2003(H9N2))
  Kd: ≥ 20 µM
HLA-A*02:12
  Kd: 3.54 µM
HLA-B*08:01; [26]
  Kd: ≥ 20 µM
HLA-B*15:01 [3]; [27]
  Kd: 2.2 µM
HLA-B*07:02; [26]
  Kd: ≥ 20 µM
HLA-A*02:01; [27]
  Kd: 1.08 µM
HLA-B*44:02; [26]
  Kd: ≥ 20 µM
HLA-A*03:01; [27]
  Kd: 0.173 µM
HLA-A*02:16
  Kd: 0.131 µM
